The nature of the data set: protein stability index of a GFP-peptide fusion (GPS, HEK-293T) (PSI 1-6); higher = more stable.
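Also: lentivirally expressed fusions sorted by FACS into six bins by GFP to DsRed ratio, PSI derived from sequencing read proportions per bin multiplied by bin number.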

B1: C2orf65 WT (peptide)
chain: QLDWDELETNQQHFHALCHSLLVS
For B1, the protein stability index (parent: IOH10869_57, c terminus: a fixed tail appended) was 2.16.

B2: WSB1 WT (peptide)
chain: FSHDGLHVASLADDKMVRFWRIDE
As for B2, the protein stability index (parent: IOH12660_54, c terminus: a fixed tail appended) stood at 1.85.

B3: ANKRD9 WT (peptide)
chain: VGAAGSARQELLGDRPRWQRLLGE
For the protein B3, under “parent: IOH11833_41, c terminus: a fixed tail appended”, the protein stability index worked out at 3.32.

B4: NET1 WT (peptide)
chain: RVRPLARVTSLANLISPVRNGAVR
On to B4, for which, where the note is “parent: IOH11256_7, c terminus: a fixed tail appended”, the protein stability index was 3.05.

B5: PKD2L1 WT (peptide)
chain: TLARCAKDILGFAVMFFIVFFAYA
For B5, for the setting “parent: IOH11095_79, c terminus: a fixed tail appended”, the protein stability index is 2.95.

B6: TEKT4 WT (peptide)
chain: YARYHQAFADRDQSERQRHESQQL
Turning to B6, the protein stability index (parent: IOH11065_9, c terminus: a fixed tail appended) came out at 2.09.

B7: MYOZ1 WT (peptide)
chain: FSDSSMDHFQKFLPTVGGQLGTAG
Take B7: the protein stability index (parent: IOH11059_14, c terminus: a fixed tail appended) was 2.43.

B8: NET1 WT (peptide)
chain: IKRTIRVLDVNNQSFREQEEPSNK
On to B8, for which, where the note is “parent: IOH11256_3, c terminus: a fixed tail appended”, the protein stability index is 3.53.

B9: PKD2L1 WT (peptide)
chain: YSGGGYYLDLPGSRQGSAEALRAL
As to B9, the protein stability index (parent: IOH11095_45, c terminus: a fixed tail appended) stood at 1.95.

B10: SAT2 WT (peptide)
chain: GYGIYYFIYSTWKGRTIYLEDIYV
As for B10, the protein stability index (parent: IOH12374_13, c terminus: a fixed tail appended) worked out at 3.

B11: ZNF511 WT (peptide)
chain: EPLPVERDPAAGAAPFRFVARPVR
With B11, the protein stability index (parent: IOH11805_4, c terminus: a fixed tail appended) came out at 2.21.

B12: ISL2 WT (peptide)
chain: HYPFLGAMGDHSKKKPGTAMCVGC
In the case of B12, the protein stability index (parent: IOH10979_2, c terminus: a fixed tail appended) worked out at 2.74.

B13: SAT2 WT (peptide)
chain: LTEAEGWHFFCFQGEATRKLAGK
Regarding B13, the protein stability index (parent: IOH12374_27, c terminus: native) worked out at 2.13.

B14: TBX5 WT (peptide)
chain: FHEVGTEMIITKAGRRMFPSYKVK
Turning to B14, for the setting “parent: IOH11603_12, c terminus: a fixed tail appended”, the protein stability index is 2.15.

B15: TBX5 WT (peptide)
chain: YQNHKITQLKIENNPFAKGFRGSD
B15: the protein stability index (parent: IOH11603_37, c terminus: a fixed tail appended) is 2.57.

B16: STK38L WT (peptide)
chain: RQLAYSTVGTPDYIAPEVFMQTGY
In the case of B16, the protein stability index (parent: IOH11742_47, c terminus: a fixed tail appended) was found to be 2.48.

B17: GOLPH3 WT (peptide)
chain: FAPLLDEQYDLATKRVRQLLDLDP
For B17, the protein stability index (parent: IOH12568_43, c terminus: a fixed tail appended) is 2.12.

B18: WSB1 WT (peptide)
chain: DLKDDGNMMKVLRGHQNWVYSCAF
For B18, the protein stability index (parent: IOH12660_34, c terminus: a fixed tail appended) amounted to 2.

B19: STK38L WT (peptide)
chain: FLPGGDMMTLLMKKDTLTEEETQF
For B19, the protein stability index (parent: IOH11742_29, c terminus: a fixed tail appended) was 2.21.

B20: ZNF511 WT (peptide)
chain: AAPFRFVARPVRFPREHQFFEDGD
On to B20, for which the protein stability index (parent: IOH11805_6, c terminus: a fixed tail appended) turned out to be 2.1.

B21: BRF1 WT (peptide)
chain: FVESSGGGSSAVGQFVSLDGAGKT
Turning to B21, the protein stability index (parent: IOH11305_8, c terminus: a fixed tail appended) came out at 2.44.

B22: ZNF511 WT (peptide)
chain: YEHHYHTLHGNVCSFCKRAFPSGH
For the protein B22, where the note is “parent: IOH11805_17, c terminus: a fixed tail appended”, the protein stability index turned out to be 2.07.

B23: SAT2 WT (peptide)
chain: IIKKVAEVALDKGCSQFRLAVLDW
Take B23: the protein stability index (parent: IOH12374_19, c terminus: a fixed tail appended) worked out at 2.44.

B24: NET1 WT (peptide)
chain: PTPAKRRSSALWSEMLDITMKESL
As for B24, the protein stability index (parent: IOH11256_16, c terminus: a fixed tail appended) stood at 2.21.

B25: SPDEF WT (peptide)
chain: FQELAGKELCAMSEEQFRQRSPLG
Consider B25, for which the protein stability index (parent: IOH12673_30, c terminus: a fixed tail appended) was 2.63.

B26: SFRS1 WT (peptide)
chain: RDIDLKNRRGGPPFAFVEFEDPRD
On to B26, for which, for the setting “parent: IOH11039_8, c terminus: a fixed tail appended”, the protein stability index was determined as 3.81.

B27: BRF1 WT (peptide)
chain: CTACGSVLEDNIIVSEVQFVESSG
B27: the protein stability index (parent: IOH11305_5, c terminus: a fixed tail appended) was found to be 3.03.

B28: CHCHD3 WT (peptide)
chain: YSGAYGASVSDEELKRRVAEELAL
For B28, under “parent: IOH11162_9, c terminus: a fixed tail appended”, the protein stability index was found to be 2.57.

B29: CPN1 WT (peptide)
chain: RGVRRTASTPTPDDKLFQKLAKVY
As for B29, the protein stability index (parent: IOH11355_40, c terminus: a fixed tail appended) was 1.95.

B30: SERPINB5 WT (peptide)
chain: FPESETKECPFRVNKVCGAACSSK
As for B30, the protein stability index (parent: IOH12329_30, c terminus: a fixed tail appended) stood at 2.39.

B31: SLC22A15 WT (peptide)
chain: IAQYALLGYFIRSWRTLAILVNLQ
B31: the protein stability index (parent: IOH10897_34, c terminus: a fixed tail appended) was found to be 2.63.

B32: TEKT4 WT (peptide)
chain: LREKLLEAEQSLRNLEDIHMSLEK
On to B32, for which the protein stability index (parent: IOH11065_64, c terminus: a fixed tail appended) turned out to be 2.56.

B33: CHMP4C WT (peptide)
chain: TNIRLPNVPSSSLPAQPNRKPGMS
For B33, the protein stability index (parent: IOH12461_31, c terminus: a fixed tail appended) was 4.51.

B34: STK38L WT (peptide)
chain: NWKETLVFPPEVPISEKAKDLILR
As for B34, the protein stability index (parent: IOH11742_57, c terminus: a fixed tail appended) stood at 3.08.

B35: CDS2 WT (peptide)
chain: IHSIALSTFASLIGPFGGFFASGF
On to B35, for which the protein stability index (parent: IOH10978_57, c terminus: a fixed tail appended) stood at 3.13.

B36: ZNF277 WT (peptide)
chain: ILREELQKQRLREILEQQQQERND
Consider B36, for which the protein stability index (parent: IOH12086_23, c terminus: a fixed tail appended) turned out to be 4.26.

B37: TEKT4 WT (peptide)
chain: SEVEELNMSLTALREKLLEAEQSL
B37: the protein stability index (parent: IOH11065_62, c terminus: a fixed tail appended) was found to be 2.99.

B38: C9orf9 WT (peptide)
chain: LTKASLKPRGCSKPPWRPPGGKL
Consider B38, for which the protein stability index (parent: IOH11209_36, c terminus: native) worked out at 2.04.

B39: LMNB1 WT (peptide)
chain: LYKEELEQTYHAKLENARLSSEMN
For B39, under “parent: IOH11078_44, c terminus: a fixed tail appended”, the protein stability index amounted to 2.79.

B40: MGC27345 WT (peptide)
chain: KYMPHLCQDSSGEVSCQCQLHPPR
B40: the protein stability index (parent: IOH12124_9, c terminus: a fixed tail appended) amounted to 2.

B41: CHMP4C WT (peptide)
chain: SSKSRAAPSPQEALVRLRETEEML
Turning to B41, the protein stability index (parent: IOH12461_3, c terminus: a fixed tail appended) is 1.94.

B42: ZNF511 WT (peptide)
chain: HLYPADFRFDKPKKSRSPASAEAP
Take B42: the protein stability index (parent: IOH11805_29, c terminus: a fixed tail appended) was determined as 2.92.

B43: SFRS1 WT (peptide)
chain: YSPRRSRGSPRYSPRHSRSRSRT
For the protein B43, for the setting “parent: IOH11039_42, c terminus: native”, the protein stability index amounted to 3.93.

B44: PKD2L1 WT (peptide)
chain: SGPEAARAGGWVSGEEFYMLTRRV
Take B44: the protein stability index (parent: IOH11095_116, c terminus: a fixed tail appended) amounted to 2.25.

B45: ANKRD9 WT (peptide)
chain: LLEDMRASEAFHWDERGRAAAYSP
In the case of B45, where the note is “parent: IOH11833_9, c terminus: a fixed tail appended”, the protein stability index was found to be 1.79.

B46: RPS21 WT (peptide)
chain: AEVSWEPGRREGCDICAGKAGCPI
In the case of B46, where the note is “parent: IOH11779_7, c terminus: a fixed tail appended”, the protein stability index was determined as 3.06.

B47: ARL6IP1 WT (peptide)
chain: YLDPSVLSGVSCFVMFLCLADYLV
For B47, the protein stability index (parent: IOH11244_11, c terminus: a fixed tail appended) turned out to be 2.87.

B48: SPDEF WT (peptide)
chain: YPEDSSWAAKAPGASSREEPPEEP
In the case of B48, the protein stability index (parent: IOH12673_12, c terminus: a fixed tail appended) was determined as 4.25.

B49: STK38L WT (peptide)
chain: FCIDSENRIGNSGVEEIKGHPFFE
Consider B49, for which the protein stability index (parent: IOH11742_61, c terminus: a fixed tail appended) was 2.18.

B50: CDS2 WT (peptide)
chain: LIVVTQSHLVIHNLFEGMIWFIVP
In the case of B50, the protein stability index (parent: IOH10978_35, c terminus: a fixed tail appended) worked out at 2.99.

B51: ZNF511 WT (peptide)
chain: FDALDDYEHHYHTLHGNVCSFCKR
In the case of B51, the protein stability index (parent: IOH11805_16, c terminus: a fixed tail appended) is 3.55.

B52: C9orf9 WT (peptide)
chain: TKHKCRQLTKASLKPRGCSKPPWR
For the protein B52, the protein stability index (parent: IOH11209_33, c terminus: a fixed tail appended) stood at 2.75.

B53: PKD2L1 WT (peptide)
chain: VFIFYYVVEEILELHIHRLRYLSS
As for B53, the protein stability index (parent: IOH11095_61, c terminus: a fixed tail appended) stood at 2.92.
